This is an account of results in article PMC12065222.

Bounds are passed on as bounds.

Series [1] deals with PD-1 on IcAR-PD-1 cells (Immune Checkpoint Artificial Reporter overexpressing PD-1) (human) (UniProt Q15116).
A short description of series [2]: surface PD-L1 flow cytometry, MCF7. Conditions: glycan lost; control: WT PD-L1, MCF7.
Series [3] is described as follows: surface PD-L1 flow cytometry, MDA-MB231. Conditions: glycan lost; control: WT PD-L1, MDA-MB231.
Series [4] has as its target PD-1 on IcAR-PD-1 cells (Immune Checkpoint Artificial Reporter overexpressing PD-1) (human) (UniProt Q15116). The source holds these as a separate data set.
For series [5], the target named is PD-1 on primary human CD8+ T cells (human (endogenous in primary T cells of donors)) (UniProt Q15116).
For series [6] the target is unchanged. This is another data set of the same source.
For series [7], the target named is PD-1 on IcAR-PD-1 cells (Immune Checkpoint Artificial Reporter overexpressing PD-1) (human) (UniProt Q15116). The source holds these as a separate data set.
Series [8] is described as follows: total-cellular/membrane PD-L1 ratio, flow cytometry, fixed MCF7. Conditions: glycan lost; control: WT PD-L1, MCF7.
Series [9] is described as follows: PD-L1 ELISA of cell lysates, MDA-MB231 and MCF7. The conditions noted are these: glycan lost; control: WT PD-L1.
Series [10] can be described thus: total-cellular/membrane PD-L1 ratio, flow cytometry, fixed MDA-MB231. Conditions: glycan lost; control: WT PD-L1, MDA-MB231.
Series [11] can be described thus: EV-bound PD-L1 ELISA after ultracentrifugation. The conditions noted are these: glycan lost; control: WT PD-L1.
The nature of series [12]: IcAR-PD-1 mIL-2 with ICBs, A375 and A549 cells. The conditions noted are these: glycan lost; control: WT PD-L1.
Series [13] is described as follows: soluble PD-L1 ELISA of supernatants, MDA-MB231 and MCF7. Conditions: glycan lost; control: WT PD-L1.
For series [14], the target named is PD-1 on IcAR-PD-1 cells (Immune Checkpoint Artificial Reporter overexpressing PD-1) (human) (UniProt Q15116). The source holds these as a separate data set.
The target is the same in series [15]. This is another data set of the same source.

As for “WT PD-L1 (programmed death-ligand 1) (from UniProt Q9NZQ7 19-290)”, the concentration of the anti-PD-1 antibody Pembrolizumab that completely blocked the mIL-2 signal of IcAR-PD-1 cells, MDA-MB231 and MCF7 cells in [1] amounted to 20 µg/mL.
For the substance PD-L1: N192A, the “expression_or_secretion, fold_change” value in series [2] and in series [3] was “no change” in each case.
Consider “PD-L1 Nx4 mutant (all four N-glycosylation sites replaced by alanine) (from UniProt Q9NZQ7 19-290) (ligand)”, for which the percent blocking of the mIL-2 signal of IcAR-PD-1 cells by anti-PD-1 antibodies Pembrolizumab, Nivolumab, Cemiplimab, all concentrations, MDA-MB231 and MCF7 cells in series [4] worked out at 100%. In [5], this substance registered a percent lysis of MCF7 target cells by PBMCs (killing assay) of 7% and a percent lysis of MDA-MB231 target cells by PBMCs (killing assay) of 39.1%. Moreover, in series [6], the percent of CD107a+ cells among CD8+ PD-1+ TCM cells (degranulation) after 4 h co-culture of anti-hCD3-activated PBMCs with MCF7 cells came to 6.1% and the percent of CD107a+ cells among CD8+ PD-1+ TCM cells (degranulation) after 4 h co-culture of anti-hCD3-activated PBMCs with MDA-MB231 cells was 10.3%. In series [7], this substance returned a mIL-2 response of IcAR-PD-1 cells incubated 24 h with formalin-fixed MCF7 cells, no antibody; fold reduction against PD-L1WT (fold reduction) of 22 and a mIL-2 response of IcAR-PD-1 cells incubated 24 h with formalin-fixed MDA-MB231 cells, no antibody; fold reduction against PD-L1WT (fold reduction) of 10.
In the case of PD-L1: N219A, the “expression_or_secretion, fold_change” value in [2] and in series [3] was “no change” in each case.
On to PD-L1: N200A, for which the “expression_or_secretion, fold_change” value in series [2] and in series [3] was “no change” in each case.
In the case of PD-L1: N35A, the localisation_or_trafficking result in [8] is “no change”. Further, the “expression_or_secretion, fold_change” value in series [2] and in series [3] was “no change” each time. For the same substance, the expression_or_secretion entry in series [9] is “no change”; in series [11] it was “increases”; in series [13], “increases, decreased by approximately 35% in MDA-MB231 PD-L1N35A cells and about 45% in MCF7 PD-L1N35A cells”. In series [10], the “localisation_or_trafficking, fold_change” value is “no change, a slight increase in total-cellular PD-L1 levels was observed in PD-L1N35A mutant MDA-MB231 cells”. Further, the “other: antibody blockade of PD-L1/PD-1 interaction” value in series [12] was “decreases”.
As for “PD-L1 N35A glycosylation mutant (from UniProt Q9NZQ7 19-290) (ligand)”, in [5], the percent lysis of MCF7 target cells by PBMCs (killing assay) worked out at 3.8% and the percent lysis of MDA-MB231 target cells by PBMCs (killing assay) was 12.2%. Besides, in [6], the percent of CD107a+ cells among CD8+ PD-1+ TCM cells (degranulation) after 4 h co-culture of anti-hCD3-activated PBMCs with MCF7 cells was determined as 3.1% and the percent of CD107a+ cells among CD8+ PD-1+ TCM cells (degranulation) after 4 h co-culture of anti-hCD3-activated PBMCs with MDA-MB231 cells was found to be 3.7%. In [14], this substance registered a percent blocking of the mIL-2 signal of IcAR-PD-1 cells by Cemiplimab (anti-PD-1, 10 µg/mL), fixed MCF7 cells of 53%; a percent blocking of the mIL-2 signal of IcAR-PD-1 cells by Cemiplimab (anti-PD-1, 10 µg/mL), fixed MDA-MB231 cells of 19.6%; a percent blocking of the mIL-2 signal of IcAR-PD-1 cells by Nivolumab (anti-PD-1, 10 µg/mL), fixed MCF7 cells of 98.6%; a percent blocking of the mIL-2 signal of IcAR-PD-1 cells by Nivolumab (anti-PD-1, 10 µg/mL), fixed MDA-MB231 cells of 83.2%. In [14], the percent blocking of the mIL-2 signal of IcAR-PD-1 cells by Pembrolizumab (anti-PD-1, 10 µg/mL), fixed MCF7 cells turned out to be 100% and the percent blocking of the mIL-2 signal of IcAR-PD-1 cells by Pembrolizumab (anti-PD-1, 10 µg/mL), fixed MDA-MB231 cells amounted to 91.6%. In [15], the percent blocking of the mIL-2 signal of IcAR-PD-1 cells by the anti-PD-1 antibody Nivolumab (1.5-40 µg/mL), MCF7 cells was above 50%.
